The results in this text go back to the DeepSol protein solubility set.

This series can be described thus: soluble on expression in E. coli; label from the status in PepcDB or PDB records.
As for “MGSDKIHHHHHHMLKIGLLWHSTTSDNLGVGALTEAQISIINKAAVQAGVEVEYRIFGTNGNKDYFEGNPLIERGTNVSLKRILIGASDYPKKIRECDVVFDIGEGDSFADIYGFSRFLIQIVSKLVVLFQRKPLILSPQTIGPFESRFNLKVANNVMQRCTKIFVRDGLSFGYLQKNNLSVNAEEVIDVAFRLPFQRPSRDSSKVKIGLNVSGLLYNGGYTGKNQFGLSVNYPELTRSLLDQFTRIEGCEVWLVPHVLTTSFPIEDDVNVCVQLQELYPAAKLAPSFSSPSQAKSFISGMDFFLGARMHACIAAFSSGVPVVPLAYSRKFNGLFSALDYPYLGDCKVNTNEQIVGLVMDCFNSREQLKFAVEEGNKIAEKKLLRYEQYIAELLTRISNKKIVL”, the “soluble on expression in E. coli” value is on record as “not soluble”.
As to “MRFIHTSDWHLGKSLEGHSRIEEQAKFCEEFIKIVESNEIDMVIIAGDVYDTSNPPAQAEKLFYQTVSRLANNGQRCVLIISGNHDNPERLSAITPLAHEQGILIYGYPLSATIEAKYKGFEITYATQGCTKLNINGENIVVATLPYPSEKRLNEVFSSEDEFEKQKNYSEKVGDIFRSLEENFRSDTINIAVSHIFVIGGESTESERPIQLGGSFLVERKDLPEKAQYTALGHLHKQQKASERLNAYYSGSPLQYSKDERAYTKGAYIVDIKAGEKPIIEDVYFNNYKPIEVFKCNGIEEALDICEQNQDREIWSYFEINTDEIISQNEIKKMKELLKDIIEIKPIITSCYEQESVDIKEKSMAELFREFYSFSKGVEPKGELMDLFLDIISEEGESADETN”, the “soluble on expression in E. coli” value is on record as “not soluble”.
The same measure for “MSLSKLGIIGLGKVGTQVLTDVQQLNLFSEIILIDDRADVASGEALDHIHSQGLINTAHIKIRSGVYQDLTDADFIVIAASEATDKNNGDRTLLAQGNHDIIKGIMSQIAEVTQEAVVILISNPVDSMVYFANQIDYPAHKIIGTGTALETSRFKTIIADHYQIDPNNVEAFVIGEHGQHAIPVWSKVHIHGMELSEFEALSDRPAIDKSHISSIINEVSMDVFYQKGWTNAAISKVTSFLIQSIALDQRTITPLTSLSSEYGLEDGAFSLPTLIDKKGIVQRFAITLDKEEERELKEAYEYIRQTIHTAQEGHHHHHH”: “soluble”; for “MSFFFLEVLTYFDYDSSMTIKAEIKALAKEIGISKIGFTTADNFDYLEKSLRASVEEGRNSGFEHKVIEDRIYTERLLESAKTIISIGVAYPHKLPQQPQKTPYKRGKITPSSWGLDYHYVVGEKLDRLSKGIEELCRDFPLQQKAMVDTGALVDTAVAQRAGIGFIGKNGLVISKEYGSYMFLGELITNLEIEPDKPVDYDCGDCRRCLDACPTSCLIGDGSMNAKRCLSFQTQDKGMMDIEFRKKIKTVIYGCDICQICCPYNKGINNSPATEIDPELAQPELIPFLSLSNGKFKEKFGMIAGSWRGKNILQRNAIIALANAHDKTAVVKLIEIIDKNNNPIHTATAIWALGEIVKKPNDEILAFMSHLTLKDEDSRKELELIRHKWQF”: “not soluble”.
For “MTVTYIGHSGFLLETEDAYFLFDYFEGTIPELKNNKSIIVFSSHRHHDHFNPEIFELIKIYPDIRYVLSYDIPLKRHLKKYENQGIDLAKNILITKKNIETMLKLPNGKDLKISTFRSTDEGVAFLLEYDNKVYYHAGDLNCWYWKEEPKSYRNNMIQLYIREIQKMDNLKIDVAFVPLDPRLEETAYEGLEIFMEHTNPQIVFPMHCWGKYDIISSFLNKHPEYKEKIRMINNEGQIFNV”, the “soluble on expression in E. coli” value is recorded as “not soluble”.
With “MSFSRRPKVTKSDIVDQIALNIKNNNLKLEKKYIRLVIDAFFEELKSNLCSNNVIEFRSFGTFEVRKRKGRLNARNPQTGEYVKVLDHHVAYFRPGKDLKERVWGIKG”, the “soluble on expression in E. coli” value is listed as “soluble”.
“SLMAGLPNSSNALQQWHHLFEAEGTKRSPQAQQHLQQLLRTGLPTRKHENWKYTPLEGLINSQFVSIAGEISPQQRDALALTLDSVRLVFVDGRYVPALSDATEGSGYEVSINDDRQGLPDAIQAEVFLHLTESLAQSVTHIAVKRGQRPAKPLLLMHITQGVAGEEVNTAHYRHHLDLAEGAEATVIEHFVSLNDARHFTGARFTINVAANAHLQHIKLAFENPLSHHFAHNDLLLAEDATAFSHSFLLGGAVLRHNTSTQLNGENSTLRINSLAMPVKNEVCDTRTWLEHNKGFCNSRQLHKTIVSDKGRAVFNGLINVAQHAIKTDGQMTNNNLLMGKLAEVDTKPQLEIYADDVKCSHGATVGRIDDEQIFYLRSRGINQQDAQQMIIYAFAAELTEALRDEGLKQQVLARIGQRLPGGAREGGSHHHHHH”: the “soluble on expression in E. coli” value was “soluble”.
As to “MHQVVCATTNPAKIQAILQAFHEIFGEGSCHIASVAVESGVPEQPFGSEETRAGARNRVANARRLLPEADFWVAIEAGIDGDSTFSWVVIENASQRGEARSATLPLPAVILEKVREGEALGPVMSRYTGIDEIGRKEGAIGVFTAGKLTRASVYHQAVILALSPFHNAVY”, the “soluble on expression in E. coli” value is reported as “soluble”.
Turning to “MSLTKIAKVIVDVPLMQTDKPFSYKIPEALLSVITAGSRVHVPFGKGNRLLQGFVVSVDSGSAQHLKTIIDVLDVEPVLNQEQLELADQMRKTVFSYKISILKSMIPNLLNSNYDRLLKPKKGLSQEEKDLIFAGKKQINFSQLNQEIQTKSLSLIQAGKIDIEYLAKDRKTIKTQKCYDVNLEKLSHLLINKRAKKRQELKDYLANHPQSGPLSDLYRLFSREVVHYFIKEAVLNISQVEVNRTQSYFENIIQSDFLDLNPEQQTAVEQITAAIGSSNKPYLLEGITGSGKTEVYLHVIDQTLKLGKTAIVLVPEISLTPQMTSRFISRFGSQVAIMHSGLSDGEKFDEWRKMKSNQAKVVVGARSAIFSPLKNIGAIIIDEEHEATYKQESSPRYHAREVALLRAQYHQAVLVLGSATPSIESRARASRGVYNFLQLSQRANPQAHIPKVKIVDFRDYIGQQKVSNLTPVLLDKIKDRLIKKEQVVLMLNRRGYSSFIMCRDCGYVDNCPNCDISLTLHMDTKTMNCHYCGFLKGIPYNCPNCQSRQIRYYGTGTQKAYDELKQVLPEARILRMDVDTTKRKGAHEKILTKFGRHEADILLGTQMIAKGLDFPNVTLVGVLNADTSLNLPDFRSSERTFQLLTQVAGRAGRANKPGEVLIQTYNPNHYAIQLAREQDYEAFYRYEMRIRKALSYPPYYFTVGLTLSHKDEQEVIKKSYEIVTLIKEGLTDKIKILGPTPKPVARTHNLYHYQIIIKYRFEDQLEIVLNHILDLTQAKENKKLRLIIDHEPQSEGHHHHHH”, the “soluble on expression in E. coli” value is “soluble”.
For the sequence “MAHHHHHHMQAAAPGQTLSSALRFWADVSYGDAPPAALIDYPPLGFEEDSSRLTVGALQASRDAAAADSRRQLGLKTQRASEDVDGSAHPALLLGVKEESSTLAVTREELEGEEGPAWLQPPLLLQLDDGLEDRQFAAATTTGRTAPVPHLRYDGAGLLAVMHVHSSGIAYVGYPRASDTVSSAEPTDGLVRLPDNVPPADPLAVAAPTPAPICSLPMSSSTGFVRGLLGLS”, the “soluble on expression in E. coli” value was “not soluble”.
With “MVIHQIKILQSVATSIVEGGRGVTGTPFPNQPDKPLKLYEFEGSPFSRRVREVLTLLNLDVEIYPCPKGGQKYRAIVKEKGGKLQFPFLIDENTGDQLYESQKIIHHLFKHYGKTGHTPEKYQHYPKIPVIGLIATLLNAARGVWVNKKIIHRAAPEQLLELWSFEASPYSRVVRDILTELEIPYVLHNVSKERWQDMGPAILRLKPGPYIPLAGGKRDKMLPMMQGKMQVPYLVDPNTGIHLFESAQIVAYLKKQYGEV” the entry was “not soluble”; with “MGSDKIHHHHHHMLYRTNPKNGDKLSILGFGAMRLPTKEDGSIDEEKATKMVRYAIDNGVNLVDTAWPYHMGECEPFLARALSEGYREKVKLSTKLPTWAVNTREDMDKFLNAQLEKLNTKQIDYYLLHTLTKASWAKIKDLGVIDFLNSAKEDGRIKNAGFSYHGMQEDFAPIVDDYNWDFCLIQYNYLDEKVQAGTKGLKYAASKGLGVFVMEPLRGGNLAGKTPEEVMEIWNKADKKRTTVEWALRWVWNHPEVTSVLSGMTEPEQLEENIKIAEEGYPNSLTQKELGLIEQAALKYGELLKINCTGCGYCMPCPANVDIPTCFGIYNNLHMFHDETQRFQYFATLSDIFWTNEPHFASQCTNCGICIEKCPQYIQIPEMLEKVVAEFEGPDNDEKMAMVKSVFKM”, “not soluble”.
With “MAVQYKSTTTEHKFKHLSVYERGQIAALLKEGKSQRYIANKLGRSPSTISREIKRGTTMQMRTDLSTYKVYFPETGQAVYEKNRMNCGAKRKLAQVEDFLKFAEDKILREKWSPDAVVGLCRRDPKWQNSTIVCTKTLYNYIDLGLIKVRNIDLNLKLRLKS”, the “soluble on expression in E. coli” value was “soluble”.
With “MNSRGLILTLGVVIAVAFAQQDSEVEREMMKRKSAYMRFGRSDGGNPMEMEKRKSAYMRFGKRSSGGDEQELVGGDDIDMEKRKSAYMRFGKRSGPQEDDMPMEKRKSAYMRFGKRSSDMEVIGNEGVDGDAHDLFKRKSAYMRFGKRSMGEEEDHDMMKRKSAYMRFGR”, the “soluble on expression in E. coli” value is listed as “not soluble”.
Take “GFGPHQRLEKLDSLLSDYDILSLSNIQQHSVRKRDLQTSTHVETLLTFSALKRHFKLYLTSSTERFSQNFKVVVVDGKNESEYTVKWQDFFTGHVVGEPDSRVLAHIRDDDVIIRINTDGAEYNIEPLWRFVNDTKDKRMLVYKSEDIKNVSRLQSPKVCGYLKVDNEELLPKGLVDREPPEGKT”: the “soluble on expression in E. coli” value is given as “not soluble”.
“MAVSDSQNSQTCLDPDASRSVLGIILGGGAGTRLYPLTKKRAKPAVPLGANYRLIDIPVSNCLNSNISKIYVLTQFNSASLNRHLSRAYASNMGGYKNEGFVEVLAAQQSPENPDWFQGTADAVRQYLWLFEEHTVLEYLILAGDHLYRMDYEKFIQAHRETDADITVAALPMDEKRATAFGLMKIDEEGRIIEFAEKPQGEQLQAMKVDTTILGLDDKRAKEMPFIASMGIYVISKDVMLNLLRDKFPGANDFGSEVIPGATSLGMRVQAYLYDGYWEDIGTIEAFYNANLGITKKPVPDFSFYDRSAPIYTQPRYLPPSKMLDADVTDSVIGEGCVIKNCKIHHSVVGLRSCISEGAIIEDSLLMGADYYETDADRKLLAAKGSVPIGIGKNCHIKRAIIDKNARIGDNVKIINKDNVQEAARETDGYFIKSGIVTVIKDALIPSGIII”: the “soluble on expression in E. coli” value is “soluble”.
With “MVEKEIDYLCSQYGLKPTNLSKFTLKLNFPDPDLKYGFSGEDNSLYLPLYHELNVSSSLPGEMFCMVYIQLILDPDKVNSEYLADFFNNPLGLKIRKGWEARGFVLRPETRNSEEVQESQQTSALNNPALLSGKSGFSGISYPVTGETSSENGDSIYSICQGSDGMTYVLPDSASPVPEILSFPDLDLESLMHSKLYLPDLQVQLEILKIKALTKELISQLNIFECRLSTYPKSMSHIRRKLELIREAVKLANDSDYILELIRRGESKRLEFKSTLRMNLMTGKPDWNIQHAVLKTIVAYLNTDGGILLVGVSNDGEILGIKNDGFPNEDRFLLHFKQLIKQHIGLNYSPMIEYTLVPVNGKEVLEIACKKSDEAVFLKTDKNDEEFYIRTGPSSERLTGSKLIEYVNRRYNGKSDAAALEHHHHHH” the entry was “soluble”.
For the sequence “MGSDKIHHHHHHMMPVRQTLSKPDIQLSYLEWNQGQEPLLLLHGLGDHALVWSSLGDYLAADYHIVAPDMRGHGESTKPERDYTFESAIADLEALMDHLGWTSAQIVSHSWTGKLAAIWARQNRKRLRSIILVDPIFIWKMPSLLRLTFPMLYRFLPFLKSMGPFTSHEEAEQQARQLKQYQGWSSLQEQVFQAGIEQKPDGSWGSKFTIAARDEIFEAVMQVPGFTIPLDIQALFIQPEQGLNRQDWQIQPYKTYLKKLRICQVPGNHWPFLTQPETFNQTVAAFLAEHR”, the “soluble on expression in E. coli” value was “not soluble”.
Regarding “MAHHHHHHMARIPPLVVCGPSGVGKGTLIKKVLSEFPSRFRFSISCTTRNKREKETNGVDYYFVDKDDFERKLKEGQFLEFDKYANNFYGTLKSEYDLAVGEGKICLFEMNINGVKQLKESKHIQDGIYIFVKPPSIDILLGRLKNRNTEKPEEINKRMQELTREMDEADKVGFNYFIVNDDLARTYAELREYLLGSYPQLRGG”, the “soluble on expression in E. coli” value is given as “soluble”.
